Measured values as given in the supplement of paper PMC9876800.

Test system: peptide library, one residue held at a place counted from the S/T acceptor
Assay: relative phosphorylation of the sub-library (ratio to the mean residue at this position); higher = residue favoured
In short: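 Purified recombinant kinases were reacted in 384-well plates with biotinylated degenerate peptide sub-libraries, each having one residue fixed at one position around a central Ser/Thr. The reaction mix contained 50 μM peptide plus 50 μM ATP spiked with γ-32P-ATP and ran for 90 min under kinase-specific conditions. Relative sub-library phosphorylation, taken from densitometry of phosphorimaged streptavidin membrane spots, is a ratio to the mean residue at that position.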

Sequence of STK38, construct: Full length, human (Q15208 whole entry, looked up): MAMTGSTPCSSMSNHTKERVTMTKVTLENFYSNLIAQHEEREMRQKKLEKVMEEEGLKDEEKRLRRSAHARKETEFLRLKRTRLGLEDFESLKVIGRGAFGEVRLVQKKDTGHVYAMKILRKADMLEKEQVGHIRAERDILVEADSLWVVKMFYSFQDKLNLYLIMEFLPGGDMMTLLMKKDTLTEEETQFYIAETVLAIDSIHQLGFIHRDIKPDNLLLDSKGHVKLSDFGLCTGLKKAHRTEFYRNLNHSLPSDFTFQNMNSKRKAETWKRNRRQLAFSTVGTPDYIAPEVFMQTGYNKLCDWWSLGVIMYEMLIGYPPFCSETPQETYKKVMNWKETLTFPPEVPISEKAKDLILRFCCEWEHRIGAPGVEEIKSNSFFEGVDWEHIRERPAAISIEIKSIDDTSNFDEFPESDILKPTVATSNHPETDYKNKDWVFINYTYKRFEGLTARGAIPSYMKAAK
Sequence of CLK1, construct: aa128-end, human (P49759 128-484, looked up): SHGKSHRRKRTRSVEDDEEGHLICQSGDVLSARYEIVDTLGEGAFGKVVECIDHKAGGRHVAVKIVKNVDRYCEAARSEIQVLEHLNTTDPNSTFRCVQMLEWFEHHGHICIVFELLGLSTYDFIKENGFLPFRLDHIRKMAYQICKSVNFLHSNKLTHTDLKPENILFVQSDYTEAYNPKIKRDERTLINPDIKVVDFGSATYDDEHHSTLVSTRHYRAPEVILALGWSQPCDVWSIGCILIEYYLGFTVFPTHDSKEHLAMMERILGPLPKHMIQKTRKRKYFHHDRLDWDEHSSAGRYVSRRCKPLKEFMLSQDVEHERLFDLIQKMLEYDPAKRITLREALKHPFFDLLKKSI
Sequence of ERN1, construct: aa468-end, human (O75460 468-977, looked up): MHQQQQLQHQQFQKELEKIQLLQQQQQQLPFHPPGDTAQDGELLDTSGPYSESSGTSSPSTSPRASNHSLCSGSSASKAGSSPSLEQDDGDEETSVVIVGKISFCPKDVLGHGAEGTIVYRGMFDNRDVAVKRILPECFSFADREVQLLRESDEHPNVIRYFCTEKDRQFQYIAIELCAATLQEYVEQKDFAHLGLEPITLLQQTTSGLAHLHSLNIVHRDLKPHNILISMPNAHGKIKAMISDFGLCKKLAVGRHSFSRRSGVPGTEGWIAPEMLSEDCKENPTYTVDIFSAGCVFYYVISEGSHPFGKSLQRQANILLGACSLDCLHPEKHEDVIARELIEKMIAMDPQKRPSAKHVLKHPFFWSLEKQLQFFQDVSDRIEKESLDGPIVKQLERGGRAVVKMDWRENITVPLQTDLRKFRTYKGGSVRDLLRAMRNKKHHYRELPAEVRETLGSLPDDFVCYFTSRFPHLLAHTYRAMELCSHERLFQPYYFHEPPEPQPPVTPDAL

CLK1, construct: aa128-end, human (from UniProt P49759)
relative phosphorylation
Details | at +1 | at +2 | at +3 | at +4 | at -1 | at -2 | at -3 | at -4 | at -5
A fixed | 0.598 | 1.12 | 0.654 | 0.682 | 0.844 | 2.56 | 0.707 | 0.901 | 0.836
D fixed | 0.144 | 0.577 | 0.507 | 0.907 | 0.327 | 0.602 | 0.306 | 0.506 | 0.591
E fixed | 0.488 | 0.614 | 0.409 | 0.937 | 0.393 | 1.54 | 0.309 | 0.636 | 0.666
F fixed | 0.442 | 0.909 | 0.713 | 1.01 | 0.669 | 0.339 | 0.317 | 0.87 | 1.86
G fixed | 0.498 | 0.93 | 0.782 | 0.916 | 0.988 | 1.17 | 0.427 | 0.877 | 0.877
H fixed | 0.56 | 1.23 | 1.01 | 0.915 | 0.822 | 0.482 | 0.634 | 1.02 | 0.956
I fixed | 1.22 | 0.828 | 0.552 | 0.678 | 0.538 | 0.257 | 0.383 | 1.03 | 0.9
K fixed | 0.704 | 1.53 | 3.14 | 1.47 | 2.35 | 0.993 | 2.66 | 1.8 | 1.49
L fixed | 0.897 | 0.926 | 0.665 | 0.884 | 1.01 | 0.467 | 0.381 | 1.01 | 0.943
M fixed | 0.839 | 0.985 | 0.633 | 0.907 | 0.999 | 0.427 | 0.394 | 0.866 | 0.891
N fixed | 0.345 | 0.832 | 0.842 | 0.959 | 0.717 | 0.605 | 0.407 | 0.776 | 0.746
P fixed | 5.99 | 1.18 | 1.84 | 0.92 | 0.993 | 0.588 | 0.368 | 0.725 | 0.839
Q fixed | 0.739 | 0.875 | 0.854 | 1.19 | 1.02 | 0.936 | 0.598 | 0.871 | 0.742
R fixed | 0.697 | 1.94 | 2.42 | 1.76 | 2.84 | 5.04 | 8.11 | 2.33 | 1.82
V fixed | 1.95 | 1.08 | 0.627 | 0.722 | 0.667 | 0.345 | 0.325 | 0.92 | 0.809
W fixed | 0.388 | 0.695 | 0.687 | 1.24 | 0.961 | 0.343 | 0.328 | 0.963 | 0.971
Y fixed | 0.505 | 0.757 | 0.673 | 0.913 | 0.862 | 0.314 | 0.344 | 0.89 | 1.06
pThr fixed | 0.711 | 1.62 | 0.67 | 1.58 | 0.273 | 0.444 | 0.355 | 0.642 | 0.501
pTyr fixed | 0.383 | 0.451 | 0.856 | 0.874 | 0.523 | 0.283 | 0.321 | 0.748 | 0.76

STK38, construct: Full length, human (from UniProt Q15208)
relative phosphorylation
Details | at +1 | at +2 | at +3 | at +4 | at -1 | at -2 | at -3 | at -4 | at -5
A fixed | 0.75 | 1.35 | 0.73 | 0.791 | 0.743 | 0.739 | 0.655 | 0.978 | 0.83
D fixed | 0.673 | 1.2 | 0.723 | 1.06 | 0.728 | 0.6 | 0.558 | 0.704 | 0.609
E fixed | 0.644 | 0.483 | 0.631 | 0.807 | 0.524 | 0.494 | 0.476 | 0.71 | 0.477
F fixed | 0.893 | 0.79 | 1.04 | 0.894 | 0.545 | 0.758 | 0.413 | 0.596 | 0.557
G fixed | 1.36 | 1.33 | 1.23 | 1.16 | 1.45 | 0.936 | 0.771 | 1.09 | 0.88
H fixed | 1.04 | 2.51 | 1.3 | 1.03 | 1.18 | 1.56 | 1.35 | 1.26 | 3.01
I fixed | 1.07 | 0.495 | 0.738 | 0.891 | 0.325 | 0.38 | 0.31 | 0.575 | 0.498
K fixed | 0.845 | 0.783 | 1.12 | 1.13 | 1.94 | 2.24 | 2.21 | 2.17 | 2.44
L fixed | 0.932 | 0.516 | 1.02 | 0.897 | 0.752 | 0.451 | 0.377 | 0.618 | 0.546
M fixed | 1.59 | 0.575 | 0.831 | 0.929 | 0.751 | 0.571 | 0.455 | 0.745 | 0.477
N fixed | 1.13 | 1.11 | 0.954 | 1.16 | 1.34 | 1.23 | 0.841 | 0.878 | 0.795
P fixed | 0.335 | 0.69 | 0.872 | 1.28 | 1.65 | 0.83 | 1.18 | 1.04 | 0.749
Q fixed | 1.15 | 0.982 | 0.938 | 1.12 | 1.17 | 0.974 | 0.886 | 0.966 | 0.737
R fixed | 1.06 | 0.87 | 1.27 | 1.1 | 1.61 | 3.03 | 4.9 | 2.46 | 2.35
V fixed | 0.965 | 1.01 | 0.729 | 0.835 | 0.477 | 0.421 | 0.35 | 0.6 | 0.542
W fixed | 1.4 | 1.32 | 1.59 | 1.05 | 0.777 | 1.05 | 0.637 | 0.884 | 0.867
Y fixed | 1.18 | 0.992 | 1.29 | 0.865 | 1.03 | 0.727 | 0.636 | 0.733 | 0.636
pThr fixed | 1.01 | 0.848 | 0.709 | 0.92 | 0.546 | 0.635 | 0.572 | 0.738 | 0.545
pTyr fixed | 0.731 | 0.745 | 0.819 | 0.623 | 0.559 | 0.525 | 0.613 | 0.547 | 0.515

ERN1, construct: aa468-end, human (from UniProt O75460)
relative phosphorylation
Details | at +1 | at +2 | at +3 | at +4 | at -1 | at -2 | at -3 | at -4 | at -5
A fixed | 0.993 | 0.597 | 0.656 | 0.755 | 1.28 | 1.07 | 1.06 | 1.11 | 1.07
D fixed | 0.229 | 0.173 | 0.375 | 0.276 | 0.33 | 0.672 | 0.705 | 0.813 | 0.747
E fixed | 0.263 | 0.158 | 0.201 | 0.26 | 0.373 | 0.869 | 0.801 | 0.831 | 0.781
F fixed | 0.67 | 0.858 | 1.32 | 1.07 | 0.966 | 1.13 | 0.781 | 0.708 | 0.873
G fixed | 1.15 | 0.662 | 0.791 | 0.892 | 0.804 | 1.26 | 1.59 | 1.29 | 1.25
H fixed | 0.835 | 1.9 | 1.31 | 1.03 | 1.75 | 1.03 | 1.03 | 0.948 | 1.07
I fixed | 0.632 | 1.08 | 0.76 | 0.849 | 0.562 | 0.794 | 0.906 | 0.949 | 1.04
K fixed | 2.21 | 1.7 | 1.45 | 2.02 | 1.89 | 1.14 | 1.2 | 1.48 | 1.49
L fixed | 0.643 | 1.21 | 0.973 | 0.766 | 0.658 | 0.857 | 0.854 | 0.87 | 0.97
M fixed | 1.03 | 1.14 | 0.85 | 0.929 | 0.937 | 0.9 | 0.818 | 0.937 | 0.871
N fixed | 1.14 | 0.559 | 0.793 | 0.795 | 0.844 | 0.933 | 0.926 | 1.03 | 0.956
P fixed | 0.258 | 0.347 | 0.525 | 0.851 | 0.833 | 1.43 | 1.08 | 0.981 | 0.909
Q fixed | 1.2 | 0.65 | 0.683 | 0.912 | 0.986 | 0.958 | 0.833 | 0.878 | 0.822
R fixed | 3.41 | 2.73 | 3.08 | 2.09 | 1.86 | 1.29 | 1.77 | 1.45 | 1.28
V fixed | 0.78 | 1.19 | 0.726 | 0.85 | 1.02 | 0.982 | 0.938 | 0.911 | 0.971
W fixed | 0.775 | 0.963 | 1.19 | 1.45 | 0.74 | 0.724 | 0.813 | 0.924 | 0.926
Y fixed | 0.778 | 1.08 | 1.31 | 1.2 | 1.16 | 0.951 | 0.906 | 0.888 | 0.963
pThr fixed | 0.381 | 0.299 | 0.315 | 0.372 | 0.448 | 0.996 | 1.2 | 0.999 | 0.991
pTyr fixed | 0.3 | 0.61 | 0.58 | 0.345 | 0.571 | 1.16 | 1 | 0.776 | 0.916

MAP2K1, construct: Full length, human (from UniProt Q02750)
relative phosphorylation
Details | at +1 | at +2 | at +3 | at +4 | at -1 | at -2 | at -3 | at -4 | at -5
A fixed | 0.7 | 0.969 | 0.94 | 0.939 | 1.03 | 0.942 | 1.02 | 0.999 | 1.03
D fixed | 1.55 | 0.835 | 1.02 | 1 | 0.876 | 0.955 | 1.02 | 1.13 | 1.08
E fixed | 0.866 | 0.696 | 0.898 | 0.911 | 0.722 | 0.931 | 1 | 1.2 | 0.95
F fixed | 1.18 | 0.746 | 0.992 | 0.92 | 0.933 | 1.72 | 1.04 | 1.04 | 1.81
G fixed | 0.753 | 0.712 | 1.11 | 1.07 | 1.35 | 0.808 | 0.725 | 0.902 | 0.816
H fixed | 0.877 | 3.48 | 1.29 | 0.998 | 1.02 | 2.03 | 1.07 | 1.11 | 0.992
I fixed | 1.56 | 0.839 | 0.852 | 0.976 | 0.77 | 0.695 | 0.998 | 0.961 | 0.94
K fixed | 0.629 | 0.84 | 0.923 | 0.885 | 1.07 | 0.768 | 1.09 | 0.861 | 0.925
L fixed | 1.18 | 0.718 | 0.947 | 1.05 | 1.32 | 0.787 | 1.02 | 0.891 | 0.943
M fixed | 1.42 | 0.924 | 0.909 | 0.949 | 1.14 | 1.02 | 1.02 | 1.06 | 0.909
N fixed | 0.738 | 0.738 | 0.854 | 0.83 | 0.959 | 0.994 | 0.781 | 0.974 | 0.882
P fixed | 0.71 | 0.775 | 0.969 | 1.04 | 0.768 | 0.615 | 0.707 | 0.806 | 0.935
Q fixed | 0.743 | 0.79 | 0.854 | 0.916 | 0.967 | 0.834 | 0.92 | 0.896 | 0.886
R fixed | 0.616 | 0.85 | 0.916 | 0.875 | 1.05 | 0.955 | 1.36 | 0.922 | 0.907
V fixed | 1.21 | 0.913 | 0.861 | 0.895 | 0.848 | 0.67 | 0.94 | 1.06 | 0.978
W fixed | 1.13 | 0.87 | 1.37 | 1.5 | 1.02 | 1.13 | 1.22 | 1.11 | 1.01
Y fixed | 1.13 | 1.31 | 1.29 | 1.25 | 1.17 | 1.14 | 1.06 | 1.09 | 1.01
pThr fixed | 1.45 | 1.08 | 0.988 | 1.02 | 0.87 | 0.824 | 1.7 | 1.14 | 0.922
pTyr fixed | 1.11 | 0.882 | 1.11 | 0.958 | 0.875 | 0.763 | 0.869 | 1.04 | 0.873
